Measured values reported in paper PMC9352680, “A comprehensive thermodynamic model for RNA binding by the Saccharomyces cerevisiae Pumilio protein PUF4”.

T1: PUF4 RNA-binding domain (Saccharomyces cerevisiae, UniProt P25339 537-888)
T1 sequence: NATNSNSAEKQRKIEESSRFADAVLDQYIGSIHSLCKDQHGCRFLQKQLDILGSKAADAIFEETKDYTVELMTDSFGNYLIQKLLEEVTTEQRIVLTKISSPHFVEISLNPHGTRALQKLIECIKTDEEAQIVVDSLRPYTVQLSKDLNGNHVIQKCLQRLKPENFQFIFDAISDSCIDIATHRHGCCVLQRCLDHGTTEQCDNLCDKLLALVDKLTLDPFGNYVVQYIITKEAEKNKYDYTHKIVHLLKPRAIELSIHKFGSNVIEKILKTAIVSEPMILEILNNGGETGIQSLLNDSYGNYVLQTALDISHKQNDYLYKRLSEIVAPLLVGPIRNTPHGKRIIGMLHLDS


Target: T1, PUF4 RNA-binding domain
Assay: Mg; RNA-MaP; 20 mM Na-HEPES pH 7.4, 30 mM KOAc, 0.75 mM MgCl2, 0.1% Tween-20, 5% glycerol, 0.1 mg/mL BSA, 2 mM DTT; 25 C; 0.0125-409.6 nM protein
Conditions: tags: N-His6-TEV cleaved; C-SNAP kept, Cy3B-labelled; label: tethered on chip by stalled RNA polymerase

Binder | Kd [nM]
UCUCUUAAUAUAUAUACGUCUCUU (ssRNA) [Id_ii_S1_P3E.3_K3.2_C3.2_[C-2A]_[T-1A]_H3.2_A3.1_F3.1_T3.2_[T9C]_[A10G]] | 1980
UCUCUUAAUAUAUAUACAUCUCUU (ssRNA) [Id_ii_S1_P3E.3_K3.2_C3.2_[C-2A]_[T-1A]_H3.2_A3.1_F3.1_T3.2_[T9C]] | 886
UCUCUUAAUAUAUAUAUUUCUCUU (ssRNA) [Id_ii_S1_P3E.3_K3.2_C3.2_[C-2A]_[T-1A]_H3.2_A3.1_F3.1_T3.2_[A10T]] | 972
UCUCUUACUAUAUAUAUGUCUCUU (ssRNA) [Id_ii_S1_P3E.3_K3.2_C3.2_[C-2A]_[T-1C]_H3.2_A3.1_F3.1_T3.2_[A10G]] | 968
UCUCUUAGUAUGUUAUCUCUU (ssRNA) [Ib_S1_P4E.1_K4.1_C4.1_H4.1_[T1A]_A4.1_[A6G]_F4.1_T4.1] | 1080
UCUCUUUUUAUAUAUACAUCUCUU (ssRNA) [Id_ii_S1_P3E.3_K3.2_C3.2_[C-2T]_H3.2_A3.1_F3.1_T3.2_[T9C]] | 1210
UCUCUUUUUAUAUAUAUCUCUCUU (ssRNA) [Id_ii_S1_P3E.3_K3.2_C3.2_[C-2T]_H3.2_A3.1_F3.1_T3.2_[A10C]] | 759
UCUCUUUUUAUAUAUAAUUCUCUU (ssRNA) [Id_ii_S1_P3E.3_K3.2_C3.2_[C-2T]_H3.2_A3.1_F3.1_T3.2_[T9A]_[A10T]] | 968
UCUCUUCCUAUAUAUAGUUCUCUU (ssRNA) [Id_ii_S1_P3E.3_K3.2_C3.2_[T-1C]_H3.2_A3.1_F3.1_T3.2_[T9G]_[A10T]] | 787
UCUCUUUUUAUAUAUACCUCUCUU (ssRNA) [Id_ii_S1_P3E.3_K3.2_C3.2_[C-2T]_H3.2_A3.1_F3.1_T3.2_[T9C]_[A10C]] | 1430
UCUCUUAGUAUAUAUAUGUCUCUU (ssRNA) [Id_ii_S1_P3E.3_K3.2_C3.2_[C-2A]_[T-1G]_H3.2_A3.1_F3.1_T3.2_[A10G]] | 502
UCUCUUAGUAUAUAUAGUUCUCUU (ssRNA) [Id_ii_S1_P3E.3_K3.2_C3.2_[C-2A]_[T-1G]_H3.2_A3.1_F3.1_T3.2_[T9G]_[A10T]] | 156
UCUCUUAUUAUAUAUACCUCUCUU (ssRNA) [Id_ii_S1_P3E.3_K3.2_C3.2_[C-2A]_H3.2_A3.1_F3.1_T3.2_[T9C]_[A10C]] | 2290
UCUCUUUUUAUAUAUAUUUCUCUU (ssRNA) [Id_ii_S1_P3E.3_K3.2_C3.2_[C-2T]_H3.2_A3.1_F3.1_T3.2_[A10T]] | 457
UCUCUUCGUAUAUAUAUAUCUCUU (ssRNA) [Id_ii_S1_P3E.3_K3.2_C3.2_[T-1G]_H3.2_A3.1_F3.1_T3.2] | 488
UCUCUUAGUAUAUAUAGCUCUCUU (ssRNA) [Id_ii_S1_P3E.3_K3.2_C3.2_[C-2A]_[T-1G]_H3.2_A3.1_F3.1_T3.2_[T9G]_[A10C]] | 494
UCUCUUCGUAUAUAUAACUCUCUU (ssRNA) [Id_ii_S1_P3E.3_K3.2_C3.2_[T-1G]_H3.2_A3.1_F3.1_T3.2_[T9A]_[A10C]] | 629
UCUCUUCGUAUAUAUAAAUCUCUU (ssRNA) [Id_ii_S1_P3E.3_K3.2_C3.2_[T-1G]_H3.2_A3.1_F3.1_T3.2_[T9A]] | 653
UCUCUUAGUAUAUAUAUCUCUCUU (ssRNA) [Id_ii_S1_P3E.3_K3.2_C3.2_[C-2A]_[T-1G]_H3.2_A3.1_F3.1_T3.2_[A10C]] | 652
UCUCUUAUUAUAUAUACGUCUCUU (ssRNA) [Id_ii_S1_P3E.3_K3.2_C3.2_[C-2A]_H3.2_A3.1_F3.1_T3.2_[T9C]_[A10G]] | 1860
UCUCUUUUUAUAUAUAGCUCUCUU (ssRNA) [Id_ii_S1_P3E.3_K3.2_C3.2_[C-2T]_H3.2_A3.1_F3.1_T3.2_[T9G]_[A10C]] | 490

Binder | Kd [nM]
UCUCUUAAUAUAUAUAGUUCUCUU (ssRNA) [Id_ii_S1_P3E.3_K3.2_C3.2_[C-2A]_[T-1A]_H3.2_A3.1_F3.1_T3.2_[T9G]_[A10T]] | 458
UCUCUUUUUAUAUAUACGUCUCUU (ssRNA) [Id_ii_S1_P3E.3_K3.2_C3.2_[C-2T]_H3.2_A3.1_F3.1_T3.2_[T9C]_[A10G]] | 1560
UCUCUUAUUAUAUAUAUCUCUCUU (ssRNA) [Id_ii_S1_P3E.3_K3.2_C3.2_[C-2A]_H3.2_A3.1_F3.1_T3.2_[A10C]] | 993
UCUCUUAUUAUAUAUAGCUCUCUU (ssRNA) [Id_ii_S1_P3E.3_K3.2_C3.2_[C-2A]_H3.2_A3.1_F3.1_T3.2_[T9G]_[A10C]] | 1310
UCUCUUAGUAUUUUAUCUCUU (ssRNA) [Ib_S1_P4E.1_K4.1_C4.1_H4.1_[T1A]_A4.1_[A6T]_F4.1_T4.1] | 798
UCUCUUUUUAUAUAUAGUUCUCUU (ssRNA) [Id_ii_S1_P3E.3_K3.2_C3.2_[C-2T]_H3.2_A3.1_F3.1_T3.2_[T9G]_[A10T]] | 272
UCUCUUACUAUAUAUACCUCUCUU (ssRNA) [Id_ii_S1_P3E.3_K3.2_C3.2_[C-2A]_[T-1C]_H3.2_A3.1_F3.1_T3.2_[T9C]_[A10C]] | 848
UCUCUUCCUAUAUAUACCUCUCUU (ssRNA) [Id_ii_S1_P3E.3_K3.2_C3.2_[T-1C]_H3.2_A3.1_F3.1_T3.2_[T9C]_[A10C]] | 969
UCUCUUCGUAUAUAUAAUUCUCUU (ssRNA) [Id_ii_S1_P3E.3_K3.2_C3.2_[T-1G]_H3.2_A3.1_F3.1_T3.2_[T9A]_[A10T]] | 675
UCUCUUACUAUAUAUAGCUCUCUU (ssRNA) [Id_ii_S1_P3E.3_K3.2_C3.2_[C-2A]_[T-1C]_H3.2_A3.1_F3.1_T3.2_[T9G]_[A10C]] | 2200
UCUCUUAGUAUAUAUACCUCUCUU (ssRNA) [Id_ii_S1_P3E.3_K3.2_C3.2_[C-2A]_[T-1G]_H3.2_A3.1_F3.1_T3.2_[T9C]_[A10C]] | 954
UCUCUUUUUAUAUAUAAGUCUCUU (ssRNA) [Id_ii_S1_P3E.3_K3.2_C3.2_[C-2T]_H3.2_A3.1_F3.1_T3.2_[T9A]_[A10G]] | 1550
UCUCUUACUAUAUAUACUUCUCUU (ssRNA) [Id_ii_S1_P3E.3_K3.2_C3.2_[C-2A]_[T-1C]_H3.2_A3.1_F3.1_T3.2_[T9C]_[A10T]] | 918
UCUCUUCGUAUAUAUACCUCUCUU (ssRNA) [Id_ii_S1_P3E.3_K3.2_C3.2_[T-1G]_H3.2_A3.1_F3.1_T3.2_[T9C]_[A10C]] | 1710
UCUCUUAAUAUAUAUACCUCUCUU (ssRNA) [Id_ii_S1_P3E.3_K3.2_C3.2_[C-2A]_[T-1A]_H3.2_A3.1_F3.1_T3.2_[T9C]_[A10C]] | 2250
UCUCUUAGUAUAAUAUCUCUU (ssRNA) [Ib_S1_P4E.1_K4.1_C4.1_H4.1_[T1A]_A4.1_[T7A]_F4.1_T4.1] | 126
UCUCUUUUUAUAUAUAUGUCUCUU (ssRNA) [Id_ii_S1_P3E.3_K3.2_C3.2_[C-2T]_H3.2_A3.1_F3.1_T3.2_[A10G]] | 1060
UCUCUUAUUAUAUAUAGUUCUCUU (ssRNA) [Id_ii_S1_P3E.3_K3.2_C3.2_[C-2A]_H3.2_A3.1_F3.1_T3.2_[T9G]_[A10T]] | 544
UCUCUUAUUAUAUAUACAUCUCUU (ssRNA) [Id_ii_S1_P3E.3_K3.2_C3.2_[C-2A]_H3.2_A3.1_F3.1_T3.2_[T9C]] | 599
UCUCUUUUUAUAUAUACUUCUCUU (ssRNA) [Id_ii_S1_P3E.3_K3.2_C3.2_[C-2T]_H3.2_A3.1_F3.1_T3.2_[T9C]_[A10T]] | 708
UCUCUUAAUAUAUAUAUGUCUCUU (ssRNA) [Id_ii_S1_P3E.3_K3.2_C3.2_[C-2A]_[T-1A]_H3.2_A3.1_F3.1_T3.2_[A10G]] | 698

Binder | Kd [nM]
UCUCUUUGUAUUUUAUCUCUU (ssRNA) [Ic_S1_P4E.1_K4.1_C4.1_H4.1_A4.1_[A6T]_F4.1_T4.1] | 2.46
UCUCUUUCUACAUUAUCUCUU (ssRNA) [Ib_S1_P4E.1_K4.1_C4.1_H4.1_[G2C]_A4.1_[T5C]_F4.1_T4.1] | 1450
UCUCUUUUUACAUUAUCUCUU (ssRNA) [Ib_S1_P4E.1_K4.1_C4.1_H4.1_[G2T]_A4.1_[T5C]_F4.1_T4.1] | 914
UCUCUUCGUAUAAUAUCUCUU (ssRNA) [Ib_S1_P4E.1_K4.1_C4.1_H4.1_[T1C]_A4.1_[T7A]_F4.1_T4.1] | 131
UCUCUUAUUAUAUAUAUAUCUCUU (ssRNA) [Id_ii_S1_P3E.3_K3.2_C3.2_[C-2A]_H3.2_A3.1_F3.1_T3.2] | 424
UCUCUUCGUAUAUAUAGCUCUCUU (ssRNA) [Id_ii_S1_P3E.3_K3.2_C3.2_[T-1G]_H3.2_A3.1_F3.1_T3.2_[T9G]_[A10C]] | 419
UCUCUUACUAUAUAUAUCUCUCUU (ssRNA) [Id_ii_S1_P3E.3_K3.2_C3.2_[C-2A]_[T-1C]_H3.2_A3.1_F3.1_T3.2_[A10C]] | 886
UCUCUUCCUAUAUAUAGCUCUCUU (ssRNA) [Id_ii_S1_P3E.3_K3.2_C3.2_[T-1C]_H3.2_A3.1_F3.1_T3.2_[T9G]_[A10C]] | 980
UCUCUUAUUAUAUAUAUUUCUCUU (ssRNA) [Id_ii_S1_P3E.3_K3.2_C3.2_[C-2A]_H3.2_A3.1_F3.1_T3.2_[A10T]] | 383
UCUCUUCCUAUAUAUACGUCUCUU (ssRNA) [Id_ii_S1_P3E.3_K3.2_C3.2_[T-1C]_H3.2_A3.1_F3.1_T3.2_[T9C]_[A10G]] | 1950
UCUCUUAUUAUAUAUAAUUCUCUU (ssRNA) [Id_ii_S1_P3E.3_K3.2_C3.2_[C-2A]_H3.2_A3.1_F3.1_T3.2_[T9A]_[A10T]] | 814
UCUCUUACUAUAUAUACAUCUCUU (ssRNA) [Id_ii_S1_P3E.3_K3.2_C3.2_[C-2A]_[T-1C]_H3.2_A3.1_F3.1_T3.2_[T9C]] | 1290
UCUCUUAGUAUAUAUAUUUCUCUU (ssRNA) [Id_ii_S1_P3E.3_K3.2_C3.2_[C-2A]_[T-1G]_H3.2_A3.1_F3.1_T3.2_[A10T]] | 452
UCUCUUAGUAUAUAUAAAUCUCUU (ssRNA) [Id_ii_S1_P3E.3_K3.2_C3.2_[C-2A]_[T-1G]_H3.2_A3.1_F3.1_T3.2_[T9A]] | 877
UCUCUUAAUAUAUAUACUUCUCUU (ssRNA) [Id_ii_S1_P3E.3_K3.2_C3.2_[C-2A]_[T-1A]_H3.2_A3.1_F3.1_T3.2_[T9C]_[A10T]] | 344
UCUCUUAAUAUAUAUAGCUCUCUU (ssRNA) [Id_ii_S1_P3E.3_K3.2_C3.2_[C-2A]_[T-1A]_H3.2_A3.1_F3.1_T3.2_[T9G]_[A10C]] | 633
UCUCUUAAUAUAUAUAAAUCUCUU (ssRNA) [Id_ii_S1_P3E.3_K3.2_C3.2_[C-2A]_[T-1A]_H3.2_A3.1_F3.1_T3.2_[T9A]] | 1290
UCUCUUACUAUAUAUAAAUCUCUU (ssRNA) [Id_ii_S1_P3E.3_K3.2_C3.2_[C-2A]_[T-1C]_H3.2_A3.1_F3.1_T3.2_[T9A]] | 1360
UCUCUUCCUAUAUAUACAUCUCUU (ssRNA) [Id_ii_S1_P3E.3_K3.2_C3.2_[T-1C]_H3.2_A3.1_F3.1_T3.2_[T9C]] | 1260
UCUCUUUUUAUAUAUAUAUCUCUU (ssRNA) [Id_ii_S1_P3E.3_K3.2_C3.2_[C-2T]_H3.2_A3.1_F3.1_T3.2] | 510
UCUCUUAUUAUAUAUACUUCUCUU (ssRNA) [Id_ii_S1_P3E.3_K3.2_C3.2_[C-2A]_H3.2_A3.1_F3.1_T3.2_[T9C]_[A10T]] | 528
